{"source": "patent US20060160990A1", "about": "(RIKEN, published 2006)", "key": {"[1]": {"molecular_target": "the molecule itself", "assay": "self-association; pseudonative SDS/PAGE, 12.5% acrylamide, not boiled", "source_text": "(§1) In Momiji, asparagine (N) at position 11 was substituted with arginine (R), leucine (L) at position 29 was substituted with threonine (T), tyrosine (Y) at position 122 was substituted with glutamic acid (E), lysine (K) at position 136 was substituted with asparagine (N), glutamine (Q) at position 138 was substituted with leucine (L), glutamine (Q) at position 142 was substituted with proline (P), asparagine (N) at position 159 was substituted with aspartic acid (D), alanine (A) at position 161 was substituted with serine (S), tyrosine (Y) at position 190 was substituted with threonine (T), phenylalanine (F) at position 192 was substituted with tyrosine (Y), cysteine (C) at position 196 was substituted with serine (S), and 6 amino acids from position 224 to position 229 were deleted. By such operations, the above Momiji became a dimer (FIG. 24). This dimer had fluorescence properties that ultraviolet ray-irradiation-dependently change from green to red, which were equivalent to those of Momiji (FIG. 25). This mutant was named as d16. The amino acid sequence and nucleotide sequence of d16 are shown in SEQ ID NOS: 15 and 16, respectively."}, "[2]": {"molecular_target": "the molecule itself", "assay": "self-association; pseudonative SDS/PAGE, 12.5% acrylamide", "source_text": "as §1"}, "[3]": {"molecular_target": "the molecule itself", "assay": "pseudonative SDS/PAGE, 12.5% acrylamide gel (self-association)"}, "[4]": {"molecular_target": "the molecule itself", "assay": "self-association; pseudonative SDS/PAGE, 12.5% acrylamide, sample not boiled", "source_text": "Since Kaede forms a tetramer, there may be cases where its expression pattern becomes abnormal when another protein is fused with Kaede. Thus, in Kaede, threonine (T) at position 158 was substituted with arginine (R), and alanine (A) at position 160 was substituted with glutamic acid (E), so as to produce a dimeric mutant. This mutant was named as Kaede 2. The amino acid sequence and nucleotide sequence of Kaede 2 are shown in SEQ ID NOS: 7 and 8 in the sequence listing, respectively. In electrophoresis on 12.5% acrylamide gel where sample was not boiled (Pseudonative SDS/PAGE), a band of Kaede 2 was detected as a molecule with a lower molecular weight than that of Kaede (FIG. 8)."}}, "data": [{"protein": "Momiji (fluorescent protein derived from Scolymia vitiensis) (other, Found to be a tetramer by pseudonative SDS/PAGE; also called WT (Momiji); wild type (Momiji); not shown: His-tag from the pET28 vector, said to be at the N-terminus) MVSVIKDEMKVNLRMEGSVNGHDFVIDGLGSGKPKEGTQTIELKVVKGGPLPFAYDILTTAFHYGNRVFAKYPKDIPNYFEQSFPEGYSWERSMIFEDGGICIARNDITMDGGTFYNKVRFYGVNFPPNGPVMQKKTQKWEQSTEKMYARDGVLTGDINMALLLKGGGHYRCDFRTTFKAKEKGVKLPGYHFIDHCIEILSHRNDYNNVTLFEHAVARSGLQDKEKQQQ", "values": [{"measurement": "binding result", "setting": "[1]", "result": "binds"}]}, {"protein": "d16 (dimeric mutant of Momiji) (other, No tag is stated for the gel sample) MVSVIKDEMKVRLRMEGSVNGHDFVIDGTGSGKPKEGTQTIELKVVKGGPLPFAYDILTTAFHYGNRVFAKYPKDIPNYFEQSFPEGYSWERSMIFEDGGICIARNDITMDGGTFYNKVRFEGVNFPPNGPVMQKNTLKWEPSTEKMYARDGVLTGDIDMSLLLKGGGHYRCDFRTTFKAKEKGVKLPGTHYIDHSIEILSHRNDYNNVTLFEHAVARSGLQD", "values": [{"measurement": "binding result", "setting": "[2]", "result": "binds"}]}, {"protein": "m16 (monomeric mutant of Momiji) (other, No tag is stated for the gel sample) MVSVIKDEMKVRLRMEGSVNGHDFVIDGTGSGKPKEGTQTIELKVVKGGPLPFAYDILTTAFHYGNRVFAKYPKDIPNYFEQSFPEGYSWERSMTFEDGGVCTARNDITMDGGTFYNKVRFEGTNFPPNGPVMQKKTLKWEPSTEKMYARDGVLTGDIDMSLLLKGGGHYRCDMRTTFKAKEKGVKLPGTHYIDHSIEILSHRNDYNNVTLYEHAVARSGLQD", "values": [{"measurement": "binding result", "setting": "[3]", "result": "no binding"}]}, {"protein": "Kaede (fluorescent protein derived from Trachyphyllia geoffroyi) (other, also called first fluorescent protein of the present invention; not shown: N-terminal His-tag from the pRSETB vector) MSLIKPEMKIKLLMEGNVNGHQFVIEGDGKGHPFEGKQSMDLVVKEGAPLPFAYDILTTAFHYGNRVFAKYPDHIPDYFKQSFPKGFSWERSLMFEDGGVCIATNDITLKGDTFFNKVRFDGVNFPPNGPVMQKKTLKWEASTEKMYLRDGVLTGDITMALLLKGDVHYRCDFRTTYKSRQEGVKLPGYHFVDHCISILRHDKDYNEVKLYEHAVAHSGLPDNVK", "values": [{"measurement": "binding result", "setting": "[4]", "result": "binds"}]}, {"protein": "Kaede 2 (dimeric mutant of Kaede, T158R and A160E) (other, No tag or expression construct is stated for the gel sample) MSLIKPEMKIKLLMEGNVNGHQFVIEGDGKGHPFEGKQSMDLVVKEGAPLPFAYDILTTAFHYGNRVFAKYPDHIPDYFKQSFPKGFSWERSLMFEDGGVCIATNDITLKGDTFFNKVRFDGVNFPPNGPVMQKKTLKWEASTEKMYLRDGVLTGDIRMELLLKGDVHYRCDFRTTYKSRQEGVKLPGYHFVDHCISILRHDKDYNEVKLYEHAVAHSGLPDNVK", "values": [{"measurement": "binding result", "setting": "[4]", "result": "binds"}]}]}
